Changes are numbered by the printed parent chain. Names may count otherwise.
T1: EsCas13d, nuclease-dead (Eubacterium siraeum, UniProt B0MS50, R295A;H300A;R849A;H854A)
T1 sequence: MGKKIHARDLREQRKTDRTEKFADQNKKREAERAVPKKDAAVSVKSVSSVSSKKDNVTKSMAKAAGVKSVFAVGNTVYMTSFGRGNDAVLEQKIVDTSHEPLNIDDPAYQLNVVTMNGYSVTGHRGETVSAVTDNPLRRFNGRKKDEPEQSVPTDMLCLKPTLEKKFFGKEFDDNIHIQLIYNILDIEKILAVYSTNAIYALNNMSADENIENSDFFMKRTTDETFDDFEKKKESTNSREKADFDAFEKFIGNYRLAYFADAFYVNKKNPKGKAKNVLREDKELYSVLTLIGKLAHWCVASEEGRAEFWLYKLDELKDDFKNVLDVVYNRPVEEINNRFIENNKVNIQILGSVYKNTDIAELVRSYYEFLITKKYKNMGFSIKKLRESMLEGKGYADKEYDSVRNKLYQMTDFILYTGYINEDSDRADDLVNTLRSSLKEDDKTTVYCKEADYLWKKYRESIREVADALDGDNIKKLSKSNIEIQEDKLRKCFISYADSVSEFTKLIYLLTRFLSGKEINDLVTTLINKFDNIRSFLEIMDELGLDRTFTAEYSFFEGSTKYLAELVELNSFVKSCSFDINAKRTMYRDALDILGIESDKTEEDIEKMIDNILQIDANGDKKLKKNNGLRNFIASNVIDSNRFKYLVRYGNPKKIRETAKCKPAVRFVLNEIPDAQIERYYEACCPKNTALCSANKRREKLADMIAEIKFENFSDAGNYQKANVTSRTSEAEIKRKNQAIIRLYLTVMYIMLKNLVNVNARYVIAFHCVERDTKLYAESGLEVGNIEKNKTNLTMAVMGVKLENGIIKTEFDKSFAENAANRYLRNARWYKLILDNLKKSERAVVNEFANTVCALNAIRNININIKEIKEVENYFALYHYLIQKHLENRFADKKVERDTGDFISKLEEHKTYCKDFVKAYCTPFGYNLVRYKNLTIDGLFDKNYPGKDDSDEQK

B1: target 1 insC 3' of 20,insU 3' of 4 (mixed)
RNA 1: CACCCGUGCAAAAAUGCAGGGGUCUAAAACUGAGCGGAUAACCUCUCUAUGG
RNA 2: GGGAAUGGAUCCACAUCUACGAAUUCGUACCACUAGAGAGGUUAUCCGCUUCACCGAGAUCGGAAGAGCACACGU
B2: target 1 A9G,A20C (mixed)
RNA 1: B1 RNA 1
RNA 2: GGGAAUGGAUCCACAUCUACGAAUUCGUACCCUAGAGAGGUUGUCCGCUCACCGAGAUCGGAAGAGCACACGU
B3: target 1 U8G,G12A (mixed)
RNA 1: B1 RNA 1
RNA 2: B2 RNA 2 with C32A, G40A, G43A, U44G
B4: target 1 A9C,A14G (mixed)
RNA 1: B1 RNA 1
RNA 2: B2 RNA 2 with C32A, A38G, G43C
B5: target 1 C4U,G13C (mixed)
RNA 1: B1 RNA 1
RNA 2: B2 RNA 2 with C32A, G39C, G43A, C48U
B6: target 1 A9G,A14G (mixed)
RNA 1: B1 RNA 1
RNA 2: B2 RNA 2 with C32A, A38G
B7: target 1 C2G,G5U (mixed)
RNA 1: B1 RNA 1
RNA 2: B2 RNA 2 with C32A, G43A, G47U, C50G
B8: target 1 insC 3' of 12,insA 3' of 12 (mixed)
RNA 1: B1 RNA 1
RNA 2: GGGAAUGGAUCCACAUCUACGAAUUCGUACCAUAGAGAGGCAUUAUCCGCUCACCGAGAUCGGAAGAGCACACGU
B9: target 1 C7A,A14C (mixed)
RNA 1: B1 RNA 1
RNA 2: B2 RNA 2 with C32A, A38C, G43A, C45A
B10: target 1 complement block 1-6 (mixed)
RNA 1: B1 RNA 1
RNA 2: B2 RNA 2 with C32A, G43A, C46G, G47C, C48G, U49A, C50G, A51U
B11: target 1 C2U,C7U (mixed)
RNA 1: B1 RNA 1
RNA 2: B2 RNA 2 with C32A, G43A, C45U, C50U
B12: target 1 G12U,A20C (mixed)
RNA 1: B1 RNA 1
RNA 2: B2 RNA 2 with G40U, G43A
B13: target 1 C7U,A9G (mixed)
RNA 1: B1 RNA 1
RNA 2: B2 RNA 2 with C32A, C45U
B14: target 1 insG 3' of 22,insG 3' of 8 (mixed)
RNA 1: B1 RNA 1
RNA 2: B1 RNA 2 with C31G, A32C, C33A, C46G, G48C, C49G, U50C
B15: target 1 A1U,G5C (mixed)
RNA 1: B1 RNA 1
RNA 2: B2 RNA 2 with C32A, G43A, G47C, A51U
B16: target 1 insC 3' of 17,insA 3' of 6 (mixed)
RNA 1: B1 RNA 1
RNA 2: B1 RNA 2 with C33U, U34A, A35G, G36C, G48A, C49G, U50C
B17: target 1 U3A,C21A (mixed)
RNA 1: B1 RNA 1
RNA 2: B2 RNA 2 with C31A, C32A, G43A, U49A
B18: target 1 U19C,C21A (mixed)
RNA 1: B1 RNA 1
RNA 2: B2 RNA 2 with C31A, C32A, U33C, G43A
B19: target 1 insA 3' of 21,insU 3' of 12 (mixed)
RNA 1: B1 RNA 1
RNA 2: B1 RNA 2 with C33A, A44U, U45A, C46U, G48C, C49G, U50C
B20: target 1 insU 3' of 21,insU 3' of 6 (mixed)
RNA 1: B1 RNA 1
RNA 2: B1 RNA 2 with A32U, C33A, G48U, C49G, U50C
B21: target 1 insA 3' of 21,insU 3' of 2 (mixed)
RNA 1: B1 RNA 1
RNA 2: B1 RNA 2 with C33A, U51C, C52U
B22: target 1 C7A,C21A (mixed)
RNA 1: B1 RNA 1
RNA 2: B2 RNA 2 with C31A, C32A, G43A, C45A
B23: target 1 U19A,C21A (mixed)
RNA 1: B1 RNA 1
RNA 2: B2 RNA 2 with C31A, C32A, U33A, G43A
B24: target 1 A1G,G5C (mixed)
RNA 1: B1 RNA 1
RNA 2: B2 RNA 2 with C32A, G43A, G47C, A51G
B25: target 1 insA 3' of 22,insC 3' of 8 (mixed)
RNA 1: B1 RNA 1
RNA 2: B1 RNA 2 with C31A, A32C, C33A, G48C, C49G, U50C
B26: target 1 U3A,G17C (mixed)
RNA 1: B1 RNA 1
RNA 2: B2 RNA 2 with C32A, G35C, G43A, U49A
B27: target 1 A1C,G5C (mixed)
RNA 1: B1 RNA 1
RNA 2: B2 RNA 2 with C32A, G43A, G47C, A51C
B28: target 1 complement block 3-7 (mixed)
RNA 1: B1 RNA 1
RNA 2: B2 RNA 2 with C32A, G43A, C45G, C46G, G47C, C48G, U49A
B29: target 1 G5C (mixed)
RNA 1: B1 RNA 1
RNA 2: B2 RNA 2 with C32A, G43A, G47C
B30: target 1 A1U,A14C (mixed)
RNA 1: B1 RNA 1
RNA 2: B2 RNA 2 with C32A, A38C, G43A, A51U
B31: target 1 complement block 4-7 (mixed)
RNA 1: B1 RNA 1
RNA 2: B2 RNA 2 with C32A, G43A, C45G, C46G, G47C, C48G
B32: target 1 insC 3' of 3,insG 3' of 2 (mixed)
RNA 1: B1 RNA 1
RNA 2: B8 RNA 2 with C41U, A42U, U43A, A45C, U46C, C47G, G49U, U51C, C52G
B33: target 1 G12U,G13A (mixed)
RNA 1: B1 RNA 1
RNA 2: B2 RNA 2 with C32A, G39A, G40U, G43A
B34: target 1 insU 3' of 7,insG 3' of 6 (mixed)
RNA 1: B1 RNA 1
RNA 2: B8 RNA 2 with C41U, A42U, U43A, A45C, C48G
B35: target 1 insG 3' of 16,insA 3' of 5 (mixed)
RNA 1: B1 RNA 1
RNA 2: B1 RNA 2 with C33U, U34A, A35G, G36A, A37G, C49A, U50C
B36: target 1 C4G,C22U (mixed)
RNA 1: B1 RNA 1
RNA 2: B2 RNA 2 with C30U, C32A, G43A, C48G

Molecular target: T1, EsCas13d, nuclease-dead
Test: crRNA (strand 1, pre-loaded); Mg2+; 40 mM Tris-HCl pH 7.5, 150 mM NaCl, 6 mM MgCl2, 1 mM DTT, 0.1% Tween-20, 0.2 mg/ml BSA; 25 C; 10 min per concentration, then washed
Details: tags: His6-TwinStrep-SUMO cleaved; N-terminal SNAP kept (SNAP-Surface 488); label: 3' end held by stalled T7 RNA polymerase

Compared with B1, B2 is 5.9-fold higher in Kd: 0.0091 ± 0.0005 µM for the first, 0.054 ± 0.015 µM for the second.

First: B3
Second: B4
The Kd of the first is 2.3-fold lower: 0.0129 ± 0.0014 µM for the first, 0.0295 ± 0.0024 µM for the second. The first binds more tightly here.

Going from B5 to B6, the Kd falls from 0.05 ± 0.01 µM to 0.0144 ± 0.0007 µM (3.5-fold).

Compared with B7, B8 is 1.5-fold lower in Kd: 0.0221 ± 0.0014 µM for the first, 0.0147 ± 0.0015 µM for the second.

Compared with B9, B10 is 5.5-fold lower in Kd: 0.034 ± 0.004 µM for the first, 0.00614 ± 0.00025 µM for the second. The second binds more tightly here.

First: B11
Second: B12
The Kd of the first is 11-fold lower: 0.0065 ± 0.00027 µM for the first, 0.074 ± 0.032 µM for the second. The first binds more tightly here.

Going from B13 to B14, the Kd rises from 0.0157 ± 0.0011 µM to 0.068 ± 0.007 µM (4.3-fold). The first binds more tightly here.

Compared with B15, B16 is 4.9-fold higher in Kd: 0.0089 ± 0.0005 µM for the first, 0.044 ± 0.005 µM for the second.

Compared with B17, B18 is 2.4-fold lower in Kd: roughly 0.09 µM for the first, 0.037 ± 0.005 µM for the second. The second binds more tightly here.

Going from B19 to B20, the Kd rises from 0.0164 ± 0.0008 µM to 0.0314 ± 0.0016 µM (1.9-fold). The first binds more tightly here.

First: B21
Second: B22
The Kd of the first is 2-fold lower: 0.0179 ± 0.001 µM for the first, 0.036 ± 0.004 µM for the second. The first binds more tightly here.

First: B23
Second: B24
The Kd of the first is 4.6-fold higher: 0.046 ± 0.005 µM for the first, 0.01 ± 0.0005 µM for the second.

Compared with B25, B26 is 2-fold higher in Kd: 0.0223 ± 0.002 µM for the first, 0.044 ± 0.004 µM for the second. The first binds more tightly here.

B27 and B28 are within 1.5-fold of each other in Kd: 0.009 ± 0.0007 µM for the first, 0.0129 ± 0.0008 µM for the second.

Going from B29 to B30, the Kd rises from 0.0096 ± 0.0004 µM to 0.045 ± 0.006 µM (4.7-fold). The first binds more tightly here.

B31 and B32 are within error of each other in Kd: 0.0126 ± 0.0008 µM for the first, 0.0116 ± 0.0007 µM for the second.

First: B33
Second: B34
The Kd of the first is 4.2-fold lower: 0.00399 ± 0.00022 µM for the first, 0.0167 ± 0.0013 µM for the second.

Compared with B35, B36 is 2.4-fold lower in Kd: 0.0235 ± 0.0015 µM for the first, 0.01 ± 0.002 µM for the second.

Reference: publication PMC10786891, “Massively parallel profiling of RNA-targeting CRISPR-Cas13d”
